{"source": "patent US20200317756A1", "about": "(CERTEST BIOTEC S L, published 2020)", "key": {"[1]": {"molecular_target": "T1, DNA-Binding Protein from Starved Cells (Dps) of Campylobacter coli (Campylobacter coli)", "T1 construct": "also called Dps of C. coli", "experiment": "sandwich immunochromatographic strip, immobilized CL30Camp and labeled CL30Camp, Dps at 0.75 ng/mL, read by eye after 10 min (+/- = weak positive response)"}, "[2]": {"molecular_target": "T2, DNA-Binding Protein from Starved Cells (Dps) of Campylobacter jejuni (Campylobacter jejuni, UniProt Q0P891 1-149)", "T2 construct": "also called Dps of C. jejuni", "experiment": "sandwich immunochromatographic strip, immobilized CL30Camp and labeled CL30Camp, Dps at 1.85 ng/mL, read by eye after 10 min"}}, "data": [{"binder": "CL30Camp monoclonal antibody (antibody, V domains shown, also called CL30Camp/CL30Camp (immobilized/labeled pair in the test device)) VH: QVQLKQSGPGLVQPSQSLSITCTVSGFSLTSSGVHWVRQSPGKGLEWLGVIWRGGSTDYNAAFMSRLSITKDNSKSQVFFKMNSLQPDDTAIYYCAKNYYYGTSPDYFDYWGQGTTLTVSS VL: not shown", "values": [{"measurement": "binding result", "setting": "[1]", "result": "binds"}, {"measurement": "binding result", "setting": "[2]", "result": "binds"}]}]}
